Results from patent US20090004212A1, “Tumour vaccines for MUC1-positive carcinomas” (priority 1997, published 2009).
No end group written: not given here. *: point of attachment. αGalNAc = CC(=O)N[C@@H]1[C@@H](O)[C@@H](O)[C@@H](CO)O[C@@H]1*

Tests used:
[1] = molecular target: T1, human 20S immunoproteasomes (Homo sapiens, UniProt P28062+P28065+P40306); assay: In vitro proteolysis of MUC1 repeat peptides and glycopeptides by immunoproteasomes; assay type: biochemical
T1 construct: purchased Immatics Biotechnologies (Tübingen, Germany)
Description: A 1 mg/ml solution of immunoproteasomes prepared according to a published protocol (20) was purchased from Immatics Biotechnologies (Tübingen, Germany) and stored frozen at −80° C.
(§1) Glycopeptides were incubated with 10 μg of human 20S immunoproteasomes (Immatics) for […], at 37° C., in 10 μl of digestion buffer (20 mM HEPES/KOH, pH 7.6 containing 2 mM Mg(CH3COO)2 and 1 mM DTT) as described (13). Digestion was stopped after 24 h by freezing the sample at −80° C. Human cathepsin-L was purchased from Sigma (Munich, Germany) and solubilized in 0.1 M sodium acetate, pH 5.5, containing 1 mM EDTA and 1 mM dithiothreitol (12). About 5 mU of enzyme were added to sialoglycopeptide substrates SGGP1 to SGGP5 (75-100 μM) in a total volume of 20 μl. The reaction mixtures were incubated at 37° C. for 24 h and 1 μl of trifluoroacetic acid was added to stop the reaction. The reaction products were cleaned by solid-phase extraction on ZipTipC18 pipette tips and 0.5 μl aliquots were applied onto the MALDI target for mass spectrometric analysis. Kinetic studies with the non-glycosylated 100-mer P1 were performed under the same conditions and the products were chromatographed on HPLC for purification and quantification.

Human cathepsin-L = molecular target: T2, Human cathepsin-L (Homo sapiens, UniProt P07711); assay: In vitro proteolysis by cathepsin-L; assay type: biochemical; details: 37° C., 24 h
T2 construct: purchased Sigma (Munich, Germany)
Description: as §1

T2 target cells = assay: CTL activity against peptide-loaded T2 target cells (CFSE/7-AAD); assay type: cell-based, human; details: T2 cells loaded with 10 μg/ml peptide, 6-hour incubation
Description: (§2) Peripheral blood mononuclear cells (PBMCs) were isolated from buffy coats of HLA-A*0201 healthy donors by Ficoll-Hypaque (MP Biomedicals, Solon, Ohio) density gradient centrifugation.
(§3) Dendritic cells (DCs) were generated by culturing adherent monocytes for 6 days in AIM-V medium (Invitrogen, Carlsbad, Calif.) supplemented with 500 U/mL granulocyte macrophage colonystimulating factor (GM-CSF, R&D, Minneapolis, Minn.) and 1000 U/mL interleukin (IL)-4 (R&D), and then matured for 48 hours with a cocktail of cytokines consisting of 10 ng/mL of each, tumor necrosis factor (TNF)-alpha, IL-6, IL-1beta (R&D), and 1 μg/mL prostaglandine E2 (Sigma, St. Louis, Mo.). […] DCs pulsed with single peptides were combined, washed, resuspended and used as stimulator cells. They were added to the autologous lymphocyte fraction in 24-well Linbro plates (ICN, Aurora, Ohio) at a ratio of 1:10 at culture initiation and fed in RPMI 1640 media supplemented with 10% human AB serum, 10 ng/ml rhIL-6 (R&D) and 5 ng/ml rhIL-12 (PreproTech, Rocky Hill, N.J.). On day 10 and thereafter every 9 days, T cells were restimulated at a ratio of 1 DC to 20 T cells, in RPMI 1640 media supplemented with 10% human AB serum, rhIL-2 and rhIL-7 (20 U/ml each, R&D).
(§4) Antigen Specificity was Assessed after 4 Stimulations. Three Days Past Each stimulation cell supernatant was collected and IFNy secretion was quantified using OptElA human IFNy ELISA kit (BD). CD8+ T-cells were enriched using magnetic microbeads (human CD8+ T Cell Isolation Kit II from Miltenyi Biotech, Auburn, Calif.) according to the manufacture's instructions and analyzed by flow cytometry for intracellular IFN-gamma and TNF-alpha production after a final 5-hour restimulation with peptide-loaded DCs in the presence of monensin (Golgi Stop, BD; 21). CTL activity was determined 3 days after the last restimulation. […] They were washed, labeled with 5- (and 6)-carboxyfluorescein diacetate succinimidyl ester (CFSE) according to the manufacture's instructions (Immunochemistry, Bloomington, Minn.) and added to a 96-well plate in duplicates at 5000 cells/well. CFSE labeled T2 cells not loaded with peptides were used as controls. CD8+ T effector cells were added at various E:T ratios for a 6-hour incubation at 37° C. Target cell death was detected by adding 7-amino-actinomycin (7-AAD, Immunochemistry) to each well 10 min before data analysis by flow cytometry and analysis was performed according to the manufacture's instructions (22).

CD8+ T-cells = assay: IFN-gamma and TNF-alpha production by peptide-primed T-cells; assay type: cell-based, human; details: after last cycle of restimulation, 4 weeks of in vitro culture
Description: as §2, §3, §4

HLA-A0201 = molecular target: T3, HLA-A0201 (Homo sapiens, UniProt P04439, D140Y/D185E/D98H/E176V/E277Q/G131W/G231S/I119V/I121R/I166T/I218V/L300P/L318F/N151K/N90K/P208A/P217A/Q86G/Q94H/R138H/R169H/T345S); assay: MHC stabilization assay on T2 cells; assay type: binding; details: T2 cells, 100 μg peptide, 16 h, W6/32 antibody, FACS
T3 construct: endogenous in cells; host or cells: T2 cell line (TAP-deficient)
Description: MHC stabilization assay is based on the increased affinity of HLA-A, -B, -C specific monoclonal W6/32 antibody for the stabilized conformation of MHC molecules after binding of a peptide ligand. The T2 cells express empty MHC molecules with short half-life.
For MHC stabilization assay T2 cells were grown in IMDM medium supplemented with 2% FCS. T2 cells were washed in PBS from the residual serum, and resuspended at 1×10^6/ml of IMDM supplemented with 0.1% FCS and 25 mM HEPES. Half of a million of cells were incubated in 48-well cell culture plate with 1 μg of […]2-microglobulin and 100 μg of peptide for 16 h at 27° C. and 8% CO2. Cells were washed with 5 ml PBS, centrifuged at 180×g for 5 min and the pellet was resuspended in 10 μl PBS containing 1 μg of W6/32 antibody and incubated at 4° C. for 30 minutes.
Subsequently, cells were washed in PBS with 1% BSA (3×5 ml) and the pellet was resuspended in 50 μl of secondary anti-mouse Alexa 488 antibody (1:1000 in PBS with 0.1% BSA), incubated for 30 minutes in the dark, washed with PBS (3×5 ml) and resuspended in 500 μl of PBS. Binding of the W6/32 antibody to MHC class I molecules was analyzed by FACS on the Beckman Coulter ADCXL4C flow cytometer. As a positive control hepatitis B virus core antigen HBVc18-27 P6Y˜C ([…]) was used. As a negative control T2 cells were used, to which no peptide was added.
Relative binding capacities of the peptides were expressed as the percent of the positive control signal (100%), normalized to the negative control (0%). A mean fluorescence that was at least 10% higher than the negative control level was considered positive binding.

[2] = molecular target: T4, HLA-A*0201 allele of the MHC class I molecule, empty, on the surface of TAP-deficient T2 cells (human); assay: MHC stabilization assay on T2 cells, W6/32 staining, flow cytometry
T4 construct: also called HLA-A2

## (CVISAPDTRPAPGSTAPPAH)x5 [Peptide P1]
[1]; digest by immunoproteasomes
  AVERAGE FRAGMENT LENGTH: 25.2
[1]; digest by immunoproteasomes, HPLC and MALDI-MS
  NUMBER OF FRAGMENTS: 105
[1]; glycosylated 8- to 11-meric fragments relative to total 8- to 11-mers
  % of glycopeptide: 0%
[1]; relative to total amount of digestion products of immunoproteasomal cleavage
  8-11 mers (%): 13%
Human cathepsin-L
  digestion of the substrate by cathepsin L: quantitative digestion of the substrate within 24 h

## SAPDT(-GalNAc)RPAPG (SAPDTRPAPG) [Peptide F2]
T2 target cells
  lysis of peptide-pulsed T2 target cells by induced CD8+ T cells: efficiently lysed
T2 target cells; listed as SAP10-T5*
  lysis of peptide-pulsed T2 target cells by induced CD8+ T cells: efficiently kill
CD8+ T-cells
  CD8+ cells producing IFN-γ: 22%
  TNF-α production by CD8+ cells: not TNF-α
HLA-A0201
  ligation strength (binding to HLA-A0201): strong binding
HLA-A0201; listed as SAP10-T5*
  ligation strength (binding to HLA-A0201): binding comparably strong in the glycosylated and non-glycosylated form
HLA-A0201; listed as SAP10-T5-GalNAc
  ligation strength (binding to HLA-A0201): slightly weaker binding

## SAPDTRPAPG (fragment of MUC1; listed as Homo sapiens) [Peptide F1]
T2 target cells
  lysis of peptide-pulsed T2 target cells by induced CD8+ T cells: efficiently lysed
T2 target cells; listed as SAP10
  lysis of peptide-pulsed T2 target cells by induced CD8+ T cells: efficiently kill
CD8+ T-cells
  CD8+ cells producing IFN-γ: 28.8%
  TNF-α production by CD8+ cells: not TNF-α
HLA-A0201
  ligation strength (binding to HLA-A0201): strongest binders

## SAPDTRPAPG (also called F1) [SAP10, non-glycosylated MUC1 tandem repeat peptide SAPDTRPAPG]
[2]
  binding result: binds

B1: SAPDT(-GalNAc)RPAPG (SAP10-T5*) (peptide)
peptide: SAPDT(αGalNAc)RPAPG
notes: Glycopeptide; also called SAP10-T5-GalNAc; F2
[2]
  binding result: binds
